Test results as given in US20210038528.

Assays:
[1] = test system: T1, CGPLGLAGGERDGC (MMP9 substrate) peptide cross-linker as presented in MMP9-NANs
T1 sequence: CGPLGLAGGERDGC

[2] = test system: T2, CGFLGC (cathepsin B substrate) peptide cross-linker as presented in CathB-NANs
T2 sequence: CGFLGC

Question: With MMP1 as the substance, how does the “dye release from pep-NAN at pH 7 (fluorescence assay)” value [1] read?
Answer: The results of these experiments indicated that the MMP9-NAN is specific to the MMP9 enzyme

Question: How did the “dye release from pep-NAN at pH 7 (fluorescence assay)” value [1] turn out when MMP2 was run?
Answer: The results of these experiments indicated that the MMP9-NAN is specific to the MMP9 enzyme

Question: Which “dye release from pep-NAN (fluorescence assay)” value [1] does the source give for “MMP9 enzyme (matrix metalloproteinase 9)” here?
Answer: MMP9-NANs and CathB-NANs released their dye when treated with their intended enzyme targets, MMP9 and cathepsin B, respectively

Question: And the “dye release from pep-NAN at pH 5 (fluorescence monitoring)” value [1]?
Answer: Exposure of MMP9-NANs to cathepsin B and MMP9 at pH 5 resulted in no observable change in fluorescence

Question: cathepsin B was tested. Which “dye release from pep-NAN (fluorescence assay)” value [2] did it give?
Answer: MMP9-NANs and CathB-NANs released their dye when treated with their intended enzyme targets, MMP9 and cathepsin B, respectively

Question: What about the “time to comparable fluorescence change, relative to MMP9-NAN degradation by MMP9” value [2] of the same substance?
Answer: it takes ˜20× as long to see comparable fluorescence changes in solution when cathepsin B is added to a solution of CathB-NANs as compared to MMP9-NAN degradation by MMP9

Question: What about the “dye release from pep-NAN (fluorescence assay)” value [1] of the same substance?
Answer: Cathepsin B activity on MMP9-NANs was also evaluated, in which no fluorescence change was observed
